The text below walks through data of patent US20120172295A1 (INDIANA UNIVERSITY RESEARCH AND TECHNOLOGY, published 2012).

Where two headings read alike, the source gives them in different places. Non-standard residues stand in square brackets, D forms with d. No end group written: not given here. *: point of attachment. Palmitoyl = CCCCCCCCCCCCCCCC(=O)*; Aib = CC(C)(N)C(=O)O

Holding throughout (test): cell-based or functional assay
Assay [1] addresses T1, glucagon receptor (UniProt P47871 26-477, limits assumed).
The target of assay [2] is T1, glucagon receptor. This is another data set of the same source.
For assay [3], the target named is T2, GLP-1 receptor (UniProt P43220 24-463, limits assumed).
Assay [4] addresses T1, glucagon receptor. The source holds these as a separate data set.
Assay [5] concerns the target T2, GLP-1 receptor. The source holds these as a separate data set.
For assay [6], the target named is T1, glucagon receptor. The source holds these as a separate data set.
In assay [7] the target is T2, GLP-1 receptor. This is another data set of the same source.
Assay [8] has as its target T1, glucagon receptor. This is another data set of the same source.
For assay [9], the target named is T2, GLP-1 receptor. This is another data set of the same source.
The target in assay [10] is T1, glucagon receptor. This is another data set of the same source.
For assay [11], the target named is T2, GLP-1 receptor. The source holds these as a separate data set.
For assay [12], the target named is T1, glucagon receptor. This is another data set of the same source.
The target of assay [13] is T2, GLP-1 receptor. The source holds these as a separate data set.
The target in assay [14] is T1, glucagon receptor. The source holds these as a separate data set.
Assay [15] concerns the target T2, GLP-1 receptor. This is another data set of the same source.

T1 sequence (P47871 26-477 limits assumed): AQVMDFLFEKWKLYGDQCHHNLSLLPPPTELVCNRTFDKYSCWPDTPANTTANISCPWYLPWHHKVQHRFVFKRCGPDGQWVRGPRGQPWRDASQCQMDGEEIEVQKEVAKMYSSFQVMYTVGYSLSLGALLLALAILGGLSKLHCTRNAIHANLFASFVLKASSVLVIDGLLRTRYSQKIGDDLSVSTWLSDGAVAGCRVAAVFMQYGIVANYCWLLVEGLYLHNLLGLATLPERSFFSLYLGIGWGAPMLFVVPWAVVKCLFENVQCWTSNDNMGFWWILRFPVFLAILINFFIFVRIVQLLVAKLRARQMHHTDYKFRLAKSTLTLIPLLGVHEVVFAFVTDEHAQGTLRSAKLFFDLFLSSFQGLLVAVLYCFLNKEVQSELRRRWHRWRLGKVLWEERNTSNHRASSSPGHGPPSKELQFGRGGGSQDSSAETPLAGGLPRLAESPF

For the molecule HSEGTFTSDYSKYLDEQAAKEFIC(PEG 20 kDa)WLMNT-NH2 [Peptide V], in the assay with glucagon receptor [1], the glucagon agonism was greater than 10 fold.

B1: AIB2, AIB16, K10(C16), K30 Glucagon Amide (peptide)
peptide: H[Aib]QGTFTSDK(Palmitoyl)SKYLD[Aib]RRAQDFVCWLMNTK-NH2
modifications: N-terminus assumed
SMILES: CCCCCCCCCCCCCCCC(=O)NCCCC[C@H](NC(=O)[C@H](CC(=O)O)NC(=O)[C@H](CO)NC(=O)[C@@H](NC(=O)[C@H](Cc1ccccc1)NC(=O)[C@@H](NC(=O)CNC(=O)[C@H](CCC(N)=O)NC(=O)C(C)(C)NC(=O)[C@@H](N)Cc1c[nH]cn1)[C@@H](C)O)[C@@H](C)O)C(=O)N[C@@H](CO)C(=O)N[C@@H](CCCCN)C(=O)N[C@@H](Cc1ccc(O)cc1)C(=O)N[C@@H](CC(C)C)C(=O)N[C@@H](CC(=O)O)C(=O)NC(C)(C)C(=O)N[C@@H](CCCNC(=N)N)C(=O)N[C@@H](CCCNC(=N)N)C(=O)N[C@@H](C)C(=O)N[C@@H](CCC(N)=O)C(=O)N[C@@H](CC(=O)O)C(=O)N[C@@H](Cc1ccccc1)C(=O)N[C@H](C(=O)N[C@@H](CS)C(=O)N[C@@H](Cc1c[nH]c2ccccc12)C(=O)N[C@@H](CC(C)C)C(=O)N[C@@H](CCSC)C(=O)N[C@@H](CC(N)=O)C(=O)N[C@H](C(=O)N[C@@H](CCCCN)C(N)=O)[C@@H](C)O)C(C)C
For the molecule B1, in the assay with glucagon receptor [2], the EC50 – broadly, the midpoint of the concentration-response curve – stood at 761 pM and the “EC50 (20% human plasma)” value worked out at 313 pM. Besides, in the assay with GLP-1 receptor [3], the “EC50 (20% human plasma)” value is 17 pM.

As for HSQGTFTSDYSKYLDERRAKDFVQWLMNT-NH2 [E16 K20-glucagon-NH2], the EC50 is 203 pM with glucagon receptor [4]; 188 pM with GLP-1 receptor [5]; 180 pM with glucagon receptor [8]; 210 pM with GLP-1 receptor [9]; 180 pM in the assay with glucagon receptor [12]; 210 pM with GLP-1 receptor [13]. For the same molecule, the “Percent Potency Relative to Native Ligand” value with glucagon receptor [6] amounted to 130%; with GLP-1 receptor [7], 41.5%; in the assay with glucagon receptor [10], 130%; with GLP-1 receptor [11] it was 41.5%.

On to HSEGTFTSDYSKYLDERRAQDFVQWLMNT-NH2 [E3, E16 Gluc-NH2], for which the “Percent Potency Relative to Native Ligand” value with glucagon receptor [14] stood at 1.6%; with GLP-1 receptor [15], 28.8%.
